Target: Myc transcription factor (UniProt P01106)
Assay: cell-based or functional assay

Sequence of HTLV-1 p30^II (HA) (P0C214 whole entry): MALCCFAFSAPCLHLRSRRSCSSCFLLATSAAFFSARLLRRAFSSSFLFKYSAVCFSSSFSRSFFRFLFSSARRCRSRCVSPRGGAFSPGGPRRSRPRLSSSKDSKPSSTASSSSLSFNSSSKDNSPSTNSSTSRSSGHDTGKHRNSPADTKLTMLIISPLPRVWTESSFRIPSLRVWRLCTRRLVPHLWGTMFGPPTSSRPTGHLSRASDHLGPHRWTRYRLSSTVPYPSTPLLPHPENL
Sequence of UniProt P01106 (P01106 16-454 limits assumed): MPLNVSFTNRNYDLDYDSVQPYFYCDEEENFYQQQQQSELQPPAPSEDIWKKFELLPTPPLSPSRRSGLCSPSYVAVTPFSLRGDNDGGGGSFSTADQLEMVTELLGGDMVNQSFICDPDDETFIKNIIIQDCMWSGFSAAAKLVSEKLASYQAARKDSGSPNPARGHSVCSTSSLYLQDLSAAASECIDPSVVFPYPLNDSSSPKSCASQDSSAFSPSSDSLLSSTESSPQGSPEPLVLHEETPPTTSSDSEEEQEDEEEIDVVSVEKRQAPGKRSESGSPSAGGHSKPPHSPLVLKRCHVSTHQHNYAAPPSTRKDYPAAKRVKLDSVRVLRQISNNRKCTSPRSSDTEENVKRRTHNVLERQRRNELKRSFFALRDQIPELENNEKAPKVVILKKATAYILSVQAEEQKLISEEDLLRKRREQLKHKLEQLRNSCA

HTLV-1 p30^II (HA)
trans-activation from the synthetic M4-tk-luc promoter (luciferase reporter, four tandem E-boxes): 13 fold | trans-activation from the synthetic M4-tk-luc promoter (luciferase reporter, four tandem E-boxes), higher p30^II concentrations: 5 to 7 fold

— patent US20050186604A1
